Measured values reported in IntAct's records for PubMed 11571280.

B1: Polycomb protein Pcl (Drosophila melanogaster (Fruit fly)), Q24459 (parent)
chain: MMNNHFHLQHDHPPQNVAHPFMQQPSTAVPSAPPATYGYLAQPAGQQPQWMTTTYQILPPSVGPATVAKRYYATTGPQTTHPTHPSTIQITNSFAQQSTPPKQQAATSCSPFKANNIRIISTAPSVYSLNKPPQEAHSTYAPVQSYYLPSGGGQTAGQINLLAASGTGKQLQPPPLVPVTNSTSPPSTVVLDRINICINNHYTETPTSLSSSLTTAQQPSPIIPAIQHKAILPLIDSSTADSSSCSSSSVSSSSYSGTATTSAAVVIVDEPDSTTTTPQTPPTTPEAMSSPGKSSPSPPLLATQSLLKGVNSMKPSFKTVEAAPPTPPTPPSPPPPPPAPPVAAPSPAVTYALQEDVFIKCNDGRFYLGTIIDQTSDQYLIRFDDQSEQWCEPDKLRKLGGGSSITAGGGGASTTESTNTSPSGPMCVACKRSDIEDVVEICERCGRGYHRGCTVEIVTGSGIWSCKRCAKPMKMQQPVSHKITKPAGICRQLPYHADKLSWDEKHRVNEEQIYCYCGKPGKFDHNMLQCCKCRNWFHTQCMQNFKKKLLRGDMFFVFCCTVCNNGIEFVRRMQIEWVDVLHIALYNLRKHQHQKYHHLLNDIWPFILEQRHQLPICEKWRTLPETALMERLKQTLKDYSDRFVCGREFKRAPAFYALRHSGPPHIPKVFLEPHEELSDELLEKRFKLMLMPEEPDEGANELPKRVPKDVYEFNTDEDDPVETSEDEIPIKQIIEKAKKQAAQKADKHDELPLKPDLADDNANDGDPGKLPAPIPPLLDANSSRKRKAFRLSKRYDNSRNHCDLSSDENSSSSRGTSSLDLIIPPPVNFLGRNNPFLMATPKKASQGRSISVGTGVGVNGIINSIFKLKGTSKEQPRMVRTIKRRLSAKDITIGPNQEVRRRRTRRLTTAIEVISTTTINPIPSHYLPIYAKDLQPPAPPMGKPTHGRLLRQRPQKQSPSQSRRNSTSSTATSSSSNGIGAPGHSMLDLKQSVNKYFGGAMNRIDAGEPFAIRAKRRMGNGQVQYLVEWGGDTATTAIGLLGN

Variants of: B1
Details: with ez_drome E(z)

Variant | effect of a mutation on the interaction
C517S | decreasing interaction
C517A | decreasing interaction
C430A | decreasing interaction
C430S | decreasing interaction
